The results in this text go back to PMC7414962, “Screening and Evaluation of New Hydroxymethylfurfural Oxidases for Furandicarboxylic Acid Production” (Applied and Environmental Microbiology, 2020).

One series concerns the target T1, MetspHMFO^His (Methylovorus sp. MP688, UniProt E4QP00).
T1 construct: gene MPQ_0130
T1 sequence (E4QP00 1-531): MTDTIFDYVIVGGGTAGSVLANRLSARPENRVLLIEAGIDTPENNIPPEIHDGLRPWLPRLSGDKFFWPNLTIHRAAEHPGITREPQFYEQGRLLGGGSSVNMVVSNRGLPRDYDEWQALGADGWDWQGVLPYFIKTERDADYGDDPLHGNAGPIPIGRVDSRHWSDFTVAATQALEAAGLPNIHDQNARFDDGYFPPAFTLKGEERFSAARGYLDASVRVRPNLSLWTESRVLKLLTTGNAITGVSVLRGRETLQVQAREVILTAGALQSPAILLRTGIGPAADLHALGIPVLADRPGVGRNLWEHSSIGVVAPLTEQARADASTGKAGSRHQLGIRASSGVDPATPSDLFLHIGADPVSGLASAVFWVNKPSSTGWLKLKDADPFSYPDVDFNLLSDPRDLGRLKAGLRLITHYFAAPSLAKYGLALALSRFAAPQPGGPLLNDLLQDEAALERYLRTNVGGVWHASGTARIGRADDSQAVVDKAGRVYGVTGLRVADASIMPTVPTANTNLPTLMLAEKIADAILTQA
In words: UV-visible flavin spectrum; FAD release on heat denaturation. The following applies: 50 mM Tris-HCl, pH 7.0, 25°C; co-purified prosthetic group. Type of series: binding.

A further series concerns the target T2, PsespHMFO (Pseudomonas sp. 11/12A, UniProt Z9N8I9PR93).
T2 sequence (Z9N8I9PR93 1-530): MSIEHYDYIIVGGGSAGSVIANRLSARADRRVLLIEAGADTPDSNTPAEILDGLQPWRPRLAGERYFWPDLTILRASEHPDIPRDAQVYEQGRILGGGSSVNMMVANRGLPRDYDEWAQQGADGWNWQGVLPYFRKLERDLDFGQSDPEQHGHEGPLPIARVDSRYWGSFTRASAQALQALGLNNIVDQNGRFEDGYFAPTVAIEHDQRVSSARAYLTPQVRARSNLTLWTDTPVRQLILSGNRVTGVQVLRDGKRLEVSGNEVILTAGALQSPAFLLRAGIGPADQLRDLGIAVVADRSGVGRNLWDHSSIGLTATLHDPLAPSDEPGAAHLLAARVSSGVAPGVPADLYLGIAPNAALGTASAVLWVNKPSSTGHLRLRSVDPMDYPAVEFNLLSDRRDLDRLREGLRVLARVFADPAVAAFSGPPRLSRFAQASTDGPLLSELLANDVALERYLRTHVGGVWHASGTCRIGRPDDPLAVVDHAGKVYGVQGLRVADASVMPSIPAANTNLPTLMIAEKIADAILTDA
The description is as above. Format: binding. As to conditions: 50 mM Tris-HCl, pH 7.0, 25°C; co-purified prosthetic group.

The next series concerns the target T3, MetspHMFO (Methylovorus sp. MP688, UniProt E4QP00).
T3 construct: gene MPQ_0130
T3 sequence (E4QP00 1-531): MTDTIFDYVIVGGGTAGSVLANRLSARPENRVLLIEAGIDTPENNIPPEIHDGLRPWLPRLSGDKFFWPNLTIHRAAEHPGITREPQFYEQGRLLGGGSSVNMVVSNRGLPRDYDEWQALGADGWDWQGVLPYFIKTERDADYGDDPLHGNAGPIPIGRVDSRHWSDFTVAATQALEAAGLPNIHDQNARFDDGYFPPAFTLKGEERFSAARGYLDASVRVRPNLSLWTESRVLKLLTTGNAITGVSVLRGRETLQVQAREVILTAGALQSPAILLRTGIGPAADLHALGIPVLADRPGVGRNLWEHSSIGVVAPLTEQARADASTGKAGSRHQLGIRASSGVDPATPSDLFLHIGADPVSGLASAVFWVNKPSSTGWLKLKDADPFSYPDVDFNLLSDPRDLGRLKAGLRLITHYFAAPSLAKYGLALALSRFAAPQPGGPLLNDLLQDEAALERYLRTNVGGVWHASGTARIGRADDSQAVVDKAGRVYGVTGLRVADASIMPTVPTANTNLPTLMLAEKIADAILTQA
The description is as above. As to conditions: 50 mM Tris-HCl, pH 7.0, 25°C; co-purified prosthetic group. Type of series: binding.

A further series has as its target T4, PseniHMFO^His (Pseudomonas nitroreducens, UniProt A0A6G6IPZ6).
T4 construct: gene G5B91_01695
T4 sequence (A0A6G6IPZ6 1-531): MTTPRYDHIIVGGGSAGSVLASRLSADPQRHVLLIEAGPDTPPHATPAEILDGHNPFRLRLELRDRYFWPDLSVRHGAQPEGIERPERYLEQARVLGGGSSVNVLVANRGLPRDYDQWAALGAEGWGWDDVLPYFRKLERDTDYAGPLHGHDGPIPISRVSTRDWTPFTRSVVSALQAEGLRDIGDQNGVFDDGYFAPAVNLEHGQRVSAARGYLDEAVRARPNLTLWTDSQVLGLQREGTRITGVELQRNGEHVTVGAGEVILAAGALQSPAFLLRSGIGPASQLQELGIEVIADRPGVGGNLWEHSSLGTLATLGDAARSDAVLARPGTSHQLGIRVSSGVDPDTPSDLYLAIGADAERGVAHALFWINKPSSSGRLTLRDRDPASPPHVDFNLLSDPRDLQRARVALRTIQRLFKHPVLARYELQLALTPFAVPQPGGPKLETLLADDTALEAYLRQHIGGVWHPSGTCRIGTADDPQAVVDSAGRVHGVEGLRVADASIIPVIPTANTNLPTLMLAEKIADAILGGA
Described as above. Type of series: binding. The following applies: 50 mM Tris-HCl, pH 7.0, 25°C; co-purified prosthetic group.

Substrate in series [1]: COc1cc(CO)ccc1O
As to the kind of experiment: steady-state, direct spectrophotometry of vanillin. Type of series: biochemical, Pseudomonas nitroreducens. As to conditions: 50 mM Tris-HCl, pH 10, 25°C, O2. From the text:
steady-state, direct spectrophotometry of vanillin on PseniHMFO^His

Substrate in series [2]: O=Cc1ccc(CO)o1
As to the kind of experiment: HRP/AmplexRed-coupled H2O2 assay. As to conditions: 50 mM Tris-HCl, pH 7.0, 25°C, O2. Format: biochemical, Pseudomonas nitroreducens. The text has this: (§1) HRP/AmplexRed-coupled H2O2 assay on PseniHMFO^His

Substrate in series [3]: O=Cc1ccc(C=O)o1
As to the kind of experiment: HRP/AmplexRed-coupled H2O2 assay. Type of series: biochemical, Pseudomonas nitroreducens. As to conditions: 50 mM Tris-HCl, pH 7.0, 25°C, O2.
Description: as §1

Substrate in the series “purified protein”: O=Cc1ccc(CO)o1
As to the kind of experiment: purified protein. As to conditions: 50 mM Tris-HCl, pH 7.0, 25°C, O2.

Substrate in series [4]: O=Cc1ccc(C=O)o1
As to the kind of experiment: HRP/AmplexRed-coupled H2O2 assay. Type of series: biochemical, Methylovorus sp. MP688. As to conditions: 50 mM Tris-HCl, pH 7.0, 25°C, O2. From the text: HRP/AmplexRed-coupled H2O2 assay on MetspHMFO

Substrate in series [5]: COc1cc(CO)ccc1O
As to the kind of experiment: steady-state, direct spectrophotometry of vanillin. As to conditions: 50 mM Tris-HCl, pH 7.0, 25°C, O2. Format: biochemical, Methylovorus sp. MP688. The text has this: steady-state, direct spectrophotometry of vanillin on MetspHMFO

Substrate in series [6]: O=Cc1ccc(C=O)o1
As to the kind of experiment: HRP/AmplexRed-coupled H2O2 assay. Format: biochemical, Methylovorus sp. MP688. As to conditions: 50 mM Tris-HCl, pH 7.0, 25°C, O2. The text has this:
HRP/AmplexRed-coupled H2O2 assay on MetspHMFO^His
The source holds these as a separate data set.

Substrate in series [7]: COc1cc(CO)ccc1O
In words: steady-state, direct spectrophotometry of vanillin. Type of series: biochemical, Methylovorus sp. MP688. The following applies: 50 mM Tris-HCl, pH 7.0, 25°C, O2. From the text:
steady-state, direct spectrophotometry of vanillin on MetspHMFO^His
This is another data set of the same source.

One may read the Km as the substrate concentration at which the rate is half of its maximum. As a reminder, the kcat is the number of substrate molecules converted per active site and unit of time at saturation.

On to `Cc1cc2nc3c(=O)[nH]c(=O)nc-3n(C[C@H](O)[C@H](O)[C@H](O)COP(=O)(O)OP(=O)(O)OC[C@H]3O[C@@H](n4cnc5c(N)ncnc54)[C@H](O)[C@@H]3O)c2cc1C` [FAD], for which the “UV-visible flavin spectrum; FAD release on heat denaturation” value on MetspHMFO^His, at PsespHMFO, at MetspHMFO and on PseniHMFO^His was “The enzymes showed UV-visible spectra characteristic of FAD-containing proteins” throughout.

B1: PseniHMFO^His (Pseudomonas nitroreducens) (protein)
chain: MTTPRYDHIIVGGGSAGSVLASRLSADPQRHVLLIEAGPDTPPHATPAEILDGHNPFRLRLELRDRYFWPDLSVRHGAQPEGIERPERYLEQARVLGGGSSVNVLVANRGLPRDYDQWAALGAEGWGWDDVLPYFRKLERDTDYAGPLHGHDGPIPISRVSTRDWTPFTRSVVSALQAEGLRDIGDQNGVFDDGYFAPAVNLEHGQRVSAARGYLDEAVRARPNLTLWTDSQVLGLQREGTRITGVELQRNGEHVTVGAGEVILAAGALQSPAFLLRSGIGPASQLQELGIEVIADRPGVGGNLWEHSSLGTLATLGDAARSDAVLARPGTSHQLGIRVSSGVDPDTPSDLYLAIGADAERGVAHALFWINKPSSSGRLTLRDRDPASPPHVDFNLLSDPRDLQRARVALRTIQRLFKHPVLARYELQLALTPFAVPQPGGPKLETLLADDTALEAYLRQHIGGVWHPSGTCRIGTADDPQAVVDSAGRVHGVEGLRVADASIIPVIPTANTNLPTLMLAEKIADAILGGA
Consider B1, for which the Km in series [1] came to 0.8 ± 0.2 mM; in series [2] it was 5.1 ± 1.1 mM; in series [3], 4.8 ± 1.9 mM. Besides, the catalytic constant (kcat) in [2] stood at 0.238 ± 0.015 s⁻¹; in series [3] it was 0.0167 ± 0.0017 s⁻¹.

B2: MetspHMFO (Methylovorus sp. MP688) (protein)
chain: MTDTIFDYVIVGGGTAGSVLANRLSARPENRVLLIEAGIDTPENNIPPEIHDGLRPWLPRLSGDKFFWPNLTIHRAAEHPGITREPQFYEQGRLLGGGSSVNMVVSNRGLPRDYDEWQALGADGWDWQGVLPYFIKTERDADYGDDPLHGNAGPIPIGRVDSRHWSDFTVAATQALEAAGLPNIHDQNARFDDGYFPPAFTLKGEERFSAARGYLDASVRVRPNLSLWTESRVLKLLTTGNAITGVSVLRGRETLQVQAREVILTAGALQSPAILLRTGIGPAADLHALGIPVLADRPGVGRNLWEHSSIGVVAPLTEQARADASTGKAGSRHQLGIRASSGVDPATPSDLFLHIGADPVSGLASAVFWVNKPSSTGWLKLKDADPFSYPDVDFNLLSDPRDLGRLKAGLRLITHYFAAPSLAKYGLALALSRFAAPQPGGPLLNDLLQDEAALERYLRTNVGGVWHASGTARIGRADDSQAVVDKAGRVYGVTGLRVADASIMPTVPTANTNLPTLMLAEKIADAILTQA
As to B2, the Km is on record as 9.1 ± 0.7 mM in the series “purified protein”, 6.8 ± 0.6 mM in series [4] and 0.5 ± 0.1 mM in [5]. In addition, the catalytic constant (kcat) stood at 1.38 ± 0.0267 s⁻¹ in “purified protein”, 0.102 ± 0.0033 s⁻¹ in series [4] and 19.5 ± 1.33 s⁻¹ in [5].

B3: MetspHMFO^His (Methylovorus sp. MP688) (protein)
chain: MTDTIFDYVIVGGGTAGSVLANRLSARPENRVLLIEAGIDTPENNIPPEIHDGLRPWLPRLSGDKFFWPNLTIHRAAEHPGITREPQFYEQGRLLGGGSSVNMVVSNRGLPRDYDEWQALGADGWDWQGVLPYFIKTERDADYGDDPLHGNAGPIPIGRVDSRHWSDFTVAATQALEAAGLPNIHDQNARFDDGYFPPAFTLKGEERFSAARGYLDASVRVRPNLSLWTESRVLKLLTTGNAITGVSVLRGRETLQVQAREVILTAGALQSPAILLRTGIGPAADLHALGIPVLADRPGVGRNLWEHSSIGVVAPLTEQARADASTGKAGSRHQLGIRASSGVDPATPSDLFLHIGADPVSGLASAVFWVNKPSSTGWLKLKDADPFSYPDVDFNLLSDPRDLGRLKAGLRLITHYFAAPSLAKYGLALALSRFAAPQPGGPLLNDLLQDEAALERYLRTNVGGVWHASGTARIGRADDSQAVVDKAGRVYGVTGLRVADASIMPTVPTANTNLPTLMLAEKIADAILTQA
B3: the figures for the Michaelis-Menten constant (Km) (in “purified protein”; in [6]; in [7]) were 6.8 ± 0.8 mM, 4.8 ± 1.9 mM and 0.6 ± 0.03 mM, respectively. Further, the kcat in “purified protein” amounted to 1.61 ± 0.0633 s⁻¹; in [6] it was 0.0417 ± 0.005 s⁻¹; in [7], 19.83 ± 0.833 s⁻¹.
